# Measurements as given in the DeepSol protein solubility set.
# Assay: soluble on expression in E. coli; label from the status in PepcDB or PDB records
row,Sequence,soluble on expression in E. coli
1,ENLYFQGMKPIHVGLLGLGTVGGGTLTVLRRNAEEITRRAGREIRVVRAAVRNLDKAEALAGGLPLTTNPFDVVDDPEIDIVVELIGGLEPARELVMQAIANGKHVVTANKHLVAKYGNEIFAAAQAKGVMVTFEAAVAGGIPIIKALREGLTANRIEWLAGIINGTSNFILSEMRDKGAAFDDVLKEAQRLGYAEADPTFDIEGIDAAHKLTILSAIAFGIPMQFERAYTEGISQLTREDVRYAEELGYRIKLLGIARRAENGIELRVHPTLIPERRLIANVDGAMNAVLVKGDAVGPTLYYGAGAGSEPTASAVVADLVDVTRLHTADPHHRVPHLAFQPDQLADTPILPMEAVRTAYYLRLRAFDRPGVLADITRILADSSISIDAMVQKEPAEGEEQVDIILLTHVTLEKNVNAAIAKIEALDAVAGKVMRIRLEDLGAK,soluble
2,EQSSSEIKIVRDEYGMPHIYANDTWHLFYGYGYVVAQDRLFQMEMARRSTQGTVAEVLGKDFVKFDKDIRRNYWPDAIRAQIAALSPEDMSILQGYADGMNAWIDKVNTNPETLLPKQFNTFGFTPKRWEPFDVAMIFVGTMANRFSDSTSEIDNLALLTALKDKYGVSQGMAVFNQLKWLVNPSAPTTIAVQESNYPLKFNQQNSQTAALLPRYDLPAPMLDRPAKGADGALLALAAGKNRETIAAQFAQGGANGLAGY,soluble
3,EQTALKKVAEMARLADSYVSAWGDEAKVSDETLRRLLTSLGYDTSSDEKLLASAEKKHKKDVLAPVLVLRDGEPVEVELNLGTSARESEFSWRLETEQGEVLEGYLQSQIVRDERAEGGPLVFALPKNLAWGYHKLIISRKRRKTPYEMSLIITPKACFKQEDLNQ,not soluble
4,ERNKVESTLLDKVLFLETLVDTIPAPVFYKDREGIYRGCNDLFAKMILGIPKEKVAGCSIDEFLEKIPQELGNVYKRTDRQLLQRGGSLIYESRIMCSDGLLRQFLINKAAYRNLNGDMEGLVGVMLDIT,not soluble
5,ETAADNAAYWSIATTMRSDNSALSAVQDALGLGAAKVDTAYDALESTIEVVKQIKAKLVAAYGVGADRGKIQDEIKQLQEQLKSISESASFSGENWLQASISNSGTPPVAESITKKVVASFTRTGSGNVGVTTVDYTLDSSTVLFDLSGGKLGILDKNAVFVSKTETEVMQTSTTAGKTSQAGYVVEKLSDAQIGALNATTTDTNTDPNLYSNGTDNYLRLAENVWVKATATNPSSGGTTVSPAYRDTGSTDWFYDVSAGTASANRSLGFSVSTLDLGNLDVVAAAMGGFAGGGTTYTGADAIDMMMSFVDKQLEAMTSTASSLGSLQSRISMQENFVSSLMDVIDKGVGRLV,not soluble
6,EVKLEESGGGLVQPGGSMKLSCATSGFTFSDAWMDWVRQSPEKGLEWVAEIRNKANNHATYYAESVKGRFTISRDDSKRRVYLQMNTLRAEDTGIYYCTGIYYHYPWFAYWGQGTLVTVSAEP,soluble
7,EVLVTGYQTLSKERSTGAFSKVSTEKLELKRMDNLSSMLEGQVAGYVNGQIRGVTTMNAVANPMVVIDGFPVENTTLDRIGQTTENMPDLNPEDIESVTVLKDAAAASIYGARAANGVIVITTKKAK,not soluble
8,EVQLQQSGAELVRPGASVKLSCTASGFNIKDDFMHWVKQRPEQGLEWIGRIDPANDNTKYAPKFQDKATIIADTSSNTAYLQLSSLTSEDTAVYYCARREVYSYYSPLDVWGAGTTVTVPSGS,soluble
9,FASFSNFTLKYHEKRFQQYGYGLMLNDTNFPGGSSGSPLIGKDNKLNSIYFGVLEIYQSGSLARNDIGMSQILRTPQ,not soluble
10,FKDFRLGINLNGVYAKNKILFWDEAPGTPEWQKSTGKPIDSGLYYEAIGIFKDQAAVDAYPHWAGARPGDIIFKDVNGDNVIDGNDRVRNDKSRTPRFTGGLNVDLGYKDFDLSFLLQGAMGGVFYQTTESGDFANFLKSFYDNRWTEENPDADFPRTYNRSNEYFINQQNTFWLHKTDYIRLKNIELGYTVPSIWSKKIGVEHLRVYINAYNLLTISPDMKDYDPENTSGSGYNYPLNKVINFGVNLTF,not soluble
11,FLILLRKTLEQLQEKDTGNIFSEPVPLSEVPDYLDHIKKPMDFFTMKQNLEAYRYLNFDDFEEDFNLIVSNCLKYNAKDTIFYRAAVRLREQGGAVLRQARRQAEKMG,soluble
12,FLNNKHREKGLKAEEEACGFLKSLGFEMVERNFFSQFGEIDIIALKKGVLHFIEVKSGENFDPIYAITPSKLKKMIKTIRCYLSQKDPN,not soluble
13,FLSTRDNVDELRKIENKSSFVSADNMPEYVKGAFISMEDERFYNHHGFDLKGTTRALFSTISDRDVQGGSTITQQVVKNYFYDNDRSFTRKVKELFVAHRVEKQYNKNEILSFYLNNIYFGDNQYTLEGAANHYFGTTVNKNSTTMSHITVLQSAILASKVNAPSVYNINN,not soluble
14,FNCLGMSNRDFLEGVSGATWVDLVLEGDSCVTIMSKDKPTIDVKMMNMEAANLAEVRSYCYLATVSDLSTKAACPTMGEAHNDKRADPAFVCRQGVVDRGWGNGCGLFGKGSIDTCAKFACSTKAIGRTILKENIKYEVAIFVHGPTTVESHGNYSTQVGATQAGRFSITPAAPSYTLKLGEYGEVTVDCEPRSGIDTNAYYVMTVGTKTFLVHREWFMDLNLPWSSAGSTVWRNRETLMEFEEPHATKQSVIALGSQEGALHQALAGAIPVEFSSNTVKLTSGHLKCRVKMEKLQLKGTTYGVCSKAFKFLGTPADTGHGTVVLELQYTGTDGPCKVPISSVASLNDLTPVGRLVTVNPFVSVATANAKVLIELEPPFGDSYIVVGRGEQQINHHWHKSGS,soluble
15,FPEKVKSLTLIDSFGFICAPEEQMTDQLRRGLLSRMKSANTTRSFTEETAVKARLHVSDLTVEHAKLIVKRSLIEIEPKSMDTVGVDSASILYRWRSDPRLRSVSPYRLSLKQGQQLFSDIKCPLQLIYGDKGMKMVVTGLKNFSSGVNSLQTTKLSGGHHVHMEKAEELLPILHHFFSEI,not soluble
16,FPSKSKMFEALIERIEQTLTSYINASKRKENSTALAVKAILYTVIEFARKNPGVTRILTGHALMFENSELKLRVAKFFDGLELQFVNILQMRKLREGKAFQDERALAGYLVTFCEGQFLRLVRSNFSSNPHQHFEKQWSLIKPLFE,not soluble
17,FSRAIDEHFVELDHMAMSAKLAVFRDELRGLGSEQQMRRREAELLRELARHPDLGLRLNGPDGNLWFERLPQPAHPGLPANRELGAPLEPGNDASPRLTVILDISHHQHFLQRMRQL,not soluble
18,FVVAFLCNWCSYACADLTGMSRIHYPTNIRVIRTMCSARINPEFVLEALKGGADGVLVAGCRMDECHYIHGNFDAKKRMDVLKEIIKEIGLDPKRLRTLWISAAEGERFSNTITEFVKELEEIGPIGSELKREYTATGLEEVAK,not soluble
19,GAAAAMSICPHIQQVFQNEKSKDGVLKTCNAARYILNHSVPKEKFLNTMKCGTCHEINSGATFMCLQCGFCGCWNHSHFLSHSKQIGHIFGINSNNGLLFCFKCEDYIGNIDLINDAILAKYWDDVCTKTMVPSMERRDGLSGLINMGSTCFMSSILQCLIHNPYFIRHSMSQIHSNNCKVRSPDKCFSCALDKIVHELYGALNTKQASSSSTSTNRQTGFIYLLTCAWKINQNLAGYSQQDAHEFWQFIINQIHQSYVLDLPNAKEVSRANNKQCECIVHTVFEGSLESSIVCPGCQNNSKTTIDPFLDLSLDIKDKKKLYECLDSFHKKEQLKDFNYHCGECNSTQDAIKQLGIHKLPSVLVLQLKRFEHLLNGSNRKLDDFIEFPTYLNMKNYCSTKEKDKHSENGKVPDIIYELIGIVSHKGTVNEGHYIAFCKISGGQWFKFNDSMVSSISQEEVLKEQAYLLFYTIRQVN,soluble
20,GAADPVVVPANMEPLTIEGNRFVTLCIMIRTTPWEVSRDVKLHPRDEVDWHTLEGVRALREAFATNNPNGRLTWGFTMNALEDGRKNYREIRDYVVECQKKYGDEVTYFPGYFPAMYLPRERVNREMSEAIEIISKMVGNGYRPQSIMGGFLSADNLRYLAEKENIHVAHAVIWSQHNIDGGGADGSPSYPFYPSTEHFCKPAQGKSDFIDCVNLDGWTMDFICARRSGQTGHGIDGYNSRRGVGPIETYKGWGLDLGHREVMHTEAIHFDKGLELNGFGWVANIWEAQMVHEFGKDLICDAMKMWVTGTKERWPDTHFVTFGEFGELWRKQYKSNDDWNYRFVERGSGLGDSYNNLEIKWFMNKEFRLALLRDWHTKNSPAYVIDFTRYDLQAHEPADPSPEKPAKDWSLINKINQKALRPQDKPVLIDKLEKEDQDLIRKYYPELLK,soluble
21,GAASEAEYGKVSKAWTLHADGSQEYRSSMELTLFTHTAMNSTYGESFIVYNPDFQTLKIHSSYTRQKDGTIVKTPDNAFVEVLPRFAADAPAYNQLKEMVVVHTGLELGATIYLDYSIITKPGYYPALDINERLQETSPVKECKVSISVPEGTPLACGLYGSPVKAVEESHDGIKEVHWTLRNIPASSREAFQPKNREASPHLVASTYPSGKAALATLDKRLKESQGYESKTFAQFLTDKSGNEQEKVNIIRDHILNNLSTCPIPMAMTGYTVRDIDTVLRSAYGTPLEIAQLLNVMLNAAGIPSEVLAVYPGHLDTDACGLAAIQTLAVKATVDGKDQYLSASPLTNRGGLDKVVSLSGTSIEIETTPIQIKESRSVAISADQAKDGFAICVLPAISAGIDSWGMSALNSKRSNLFELPSLIREEVTYTVTPAEGMKLQTSTQEQVISKPFGKVTRTITPRGNTIEVVRTIELNKQQFTPAEYSDVRSLIHEWTNPDNRVLLFSL,soluble
22,GAGTSTPTTGNQNMSGNSGSIVQNFYMQQYQNSIDADLGDNVISPEGQGSNTSSSTSSSQSSGLGGWFSSLLNLGTKLLADKKTEETTNIEDRIETTVVGVTIINSQGSVGTTYCYSKPDGRPPSTVSDPVTRLGPTLSRHYTFKVGEWPHSQSHGHAWICPLPGDKLKKMGSFHEVVKAHHLVKNGWDVVVQVNASFAHSGALCVAAVPEYEHTHEKALKWSELEEPAYTYQQLSVFPHQLLNLRTNSSVHLVMPYIGPGPTTNSALHNPWTIVVLILSELTGPGQTVPVTMSVAPIDAMVNGPLPNPEAPIRVVSVPESDSFMSSVPDNSTPLYPKVVVPPRQVPGRFTNFIDVAKQTYSFCSISGKPYFEVTNTSGDEPLFQMDVSLSAAELHGTYVASLSSFFAQYRGSLNFNFIFTGAAATKAKFLVAFVPPHSAAPKTRDEAMACIHAVWDVGLNSAFSFNVPYSSPADFMAVYSAEATVVNVSGWLQVYALTALTSTDIAVNSKGRVLVAVSAGPDFSLRHPVDLPDKQVTNVGEDGEPGETEPRYALSPVDMHVHTDVSFLLDRFFDVETLELSNLTGSPNTHVLNPFGSTAQLAWARLLNTCTYFFSDLELSIQFKFTTTPSSVGEGFVWVKWFPVGAPTKTTDAWQLEGGGNSVRIQQLAVAGMSPTVVFKIAGSRSQACGFSVPYTSMWRVVPVFYNGWGAPTKEKATYNWLPGAHFGSILLTSDAHDKGGCYLRYRFPRASMYCPRPIAPAFTRPADKTRHKFPTNINKQCTNYSLLKLAGDVESNPG,soluble
23,GAKDSTVQTSISVENVLERAGDSTPFSVALESIDAMKTIEEITIAGSGKASFSPLTFTTVGQYTYRVYQKPSQNKDYQADTTVFDVLVYVTYDEDGTLVAKVISRRAGDEEKSAITFKPKRLVKPIPPRQPDFPKTPLPLA,soluble
24,GAMAPATVNVEVLQDKLDHPWALAFLPDNHGMLITLRGGELRHWQAGKGLSAPLSGVPDVWAHGQGGLLDVVLAPDFAQSRRIWLSYSEVGDDGKAGTAVGYGRLSDDLSKVTDFRTVFRQMPKLSTGNHFGGRLVFDGKGYLFIALGENNQRPTAQDLDKLQGKLVRLTDQGEIPDDNPFIKESGVRAEIWSYGIRNPQGMAMNPWSNALWLNEHGPRGGDEINIPQKGKNYGWPLATWGINYSGFKIPEAKGEIVAGTEQPVFYWKDSPAVSGMAFYNSDKFPQWQQKLFIGALKDKDVIVMSVNGDKVTEDGRILTDRGQRIRDVRTGPDGYLYVLTDESSGELLKVSPR,soluble
